Test results published in patent publication US9657061B2, “Hydrochloride salt of peptide and its use in combination with other peptides for immunotherapy” (Circassia Limited, priority 2012, dated 2017).
Where no end group is shown, it is not given here.

What was measured:
[1] = Stability of salts of MLA01 on storage: purity by HPLC; type: physicochemical; settings: for course of purity over the 4 week test period (in words): −20° C., 5° C., 25° C./60% RH, 40° C./75% RH
Experimental: (§1) The stability of MLA01 trifluoroacetate, MLA01 acetate and MLA01 hydrochloride when stored in an inert container over a four week period under different storage conditions was tested. The specific storage conditions evaluated are set out in Table 1.
(§2) Samples of each MLA01 salt were stored in inert glass containers with polypropylene twist-off caps. The samples were stored and removed at various time points for testing according to the schedule in Table 2, where X denotes removal of a sample for testing.
The purity of each sample was tested by HPLC. Purity was measured as area-percent, and the results are set out in Tables 3A to 3C below (where “-” denotes test not performed).

[2] = Stability of salts of MLA01 on storage: levels of three specific impurities (RRT 0.978, 1.072, 1.099); type: physicochemical
Experimental: as §1, §2
The levels of three specific impurities with relative retention times (RRTs) of 0.978, 1.072 and 1.099 were also measured. The impurity with an RRT of 0.978 is the impurity formed by cleavage of the terminal Cys-Pro residues from the MLA01 peptide. The impurity with an RRT of 1.072 is the cysteine sulfinic acid impurity of the MLA01 peptide. The impurity with an RRT of 1.099 is the dimer of the MLA01 peptide. The values are set out in Tables 4A to 4C below (where “<” denotes less than 0.1%).

Sequence	stability compared with other salt forms (in words) ([1]; 4 week storage, all conditions tested)	purity (HPLC) ([1]; storage 5° C., 2 weeks) [area-percent]	purity (HPLC) ([1]; storage 5° C., 4 weeks) [area-percent]	purity (HPLC) ([1]; storage 25° C./60% RH, 2 weeks) [area-percent]	purity (HPLC) ([1]; storage 25° C./60% RH, 4 weeks) [area-percent]	purity (HPLC) ([1]; storage 40° C./75% RH, 2 weeks) [area-percent]	purity (HPLC) ([1]; storage 40° C./75% RH, 4 weeks) [area-percent]	purity (HPLC) ([1]; storage −20° C., 0 weeks) [area-percent]	purity (HPLC) ([1]; storage −20° C., 2 weeks) [area-percent]	purity (HPLC) ([1]; storage −20° C., 4 weeks) [area-percent]	course of purity over the 4 week test period (in words) [1]	impurity RRT 0.978 (cleavage of the terminal Cys-Pro residues) ([2]; 0 weeks, −20° C.) [%]	impurity RRT 1.072 (cysteine sulfinic acid impurity) ([2]; 0 weeks, −20° C.) [%]	impurity RRT 1.099 (dimer of the MLA01 peptide) ([2]; 0 weeks, −20° C.) [%]	impurity RRT 0.978 (cleavage of the terminal Cys-Pro residues) ([2]; 4 weeks, 40° C./75% RH) [%]	impurity RRT 1.072 (cysteine sulfinic acid impurity) ([2]; 4 weeks, 40° C./75% RH) [%]	impurity RRT 1.099 (dimer of the MLA01 peptide) ([2]; 4 weeks, 40° C./75% RH) [%]	impurity RRT 0.978 (cleavage of the terminal Cys-Pro residues) ([2]; 4 weeks, −20° C.) [%]	impurity RRT 1.072 (cysteine sulfinic acid impurity) ([2]; 4 weeks, −20° C.) [%]	impurity RRT 1.099 (dimer of the MLA01 peptide) ([2]; 4 weeks, −20° C.) [%]
CPAVKRDVDLFLT [MLA01 hydrochloride] (also: hydrochloride salt)	more stable than MLA01 acetate or MLA01 trifluoroacetate	94.0	95.7	94.3	95.5	92.4	95.3	96.6	94.0	95.6	stayed constant	<0.1	0.1	0.34	0.2	0.2	0.6	0.1	<0.1	0.7
CPAVKRDVDLFLT [MLA01 acetate] (also: acetate salt)		82.7	84.2	75.6	67.2	54.0	39.4	90.6	84.5	88.1	degraded under all conditions tested	2.0	2.5	1.6	17.1	5.9	12.8	2.3	2.8	2.5
CPAVKRDVDLFLT [MLA01 trifluoroacetate] (also: trifluoroacetate salt)		95.6	95.2	94.4	94.5	91.0	89.4	96.7	95.9	95.8	degraded at higher temperature/humidity	<0.1	<0.1	0.3	0.9	0.2	2.8	<0.1	<0.1	0.6
